# Test results as given in the supplement of paper PMC6757056.
# ± gives the standard deviation of the averaged measurements.
# B1: library; a variant is named by its letters at N, in order (parent)
# chain: GCUGUCACCGGUGUAUUACCCUAGUGGUCGACCGGUCUGAUGAGUCUNNNNNNAGACGAAACAGC
# Assays:
# [1] = variants of: B1; experiment: FACS-Seq fitted mean relative fluorescence mCherry/BFP without ligand (log10 relative fluorescence); ligand: hypoxanthine (xanthine aptamer); higher = higher reporter protein expression; conditions: HEK293T, ligand present: no
# Protocol: (§1)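 Hammerhead (sTRSV) ribozyme switch libraries with a ligand aptamer grafted on stem I and a randomized N4-6 loop II, cloned into the 3' UTR of mCherry and transiently transfected into HEK293T cells; RNA-Seq 72 h post transfection with ligand added 1 h before transfection; RNA read count / plasmid DNA read count normalized to the non-cleaving sTRSVctl (x100), log10; sequences with >100 DNA reads. FACS-Seq: lentiviral library sorted into 6 bins after 48 h ligand, log-normal fit mean of mCherry/BFP scaled to controls. Printed sequences are partial switch sequences.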
# [2] = variants of: B1; experiment: normalized RNA/DNA level with ligand (relative to sTRSVctl = 100) (log10 (% of sTRSVctl)); ligand: hypoxanthine (xanthine aptamer); higher = less ribozyme self-cleavage, higher mRNA level; conditions: ligand concentration (+) RNA-Seq: 5 mM, HEK293T, reporter: mCherry (pCS4076), ligand present: yes
# Protocol: as §1
# [3] = variants of: B1; experiment: normalized RNA/DNA level without ligand (relative to sTRSVctl = 100) (log10 (% of sTRSVctl)); ligand: hypoxanthine (xanthine aptamer); higher = less ribozyme self-cleavage, higher mRNA level; conditions: HEK293T, reporter: mCherry (pCS4076), ligand present: no
# Protocol: as §1
# [4] = variants of: B1; experiment: FACS-Seq fitted mean relative fluorescence mCherry/BFP with ligand (log10 relative fluorescence); ligand: hypoxanthine (xanthine aptamer); ligand concentration (+) FACS-Seq: 5 mM; higher = higher reporter protein expression; conditions: HEK293T, ligand present: yes
# Protocol: as §1
Variant,FACS-Seq fitted mean (log10) [1],normalized RNA/DNA level with ligand (log10) [2],normalized RNA/DNA level without ligand (log10) [3],FACS-Seq fitted mean (log10) [4]
CAAUUG,0.324 ± 0.016,1.96 ± 0.026,1.894 ± 0.014,0.498 ± 0.044
CACAUA,0.738 ± 0.084,1.91 ± 0.07,1.73 ± 0.047,0.656 ± 0.076
UAAGUG,-0.334 ± 0.04,1.891 ± 0.0081,1.653 ± 0.015,0.146 ± 0.027
AAAGCU,-0.307 ± 0.014,1.94 ± 0.026,1.85 ± 0.034,-0.41 ± 0.022
AAAGCG,0.0919 ± 0.015,1.82 ± 0.026,1.32 ± 0.086,0.539 ± 0.023
CAAGGC,-0.0753 ± 0.017,1.936 ± 0.017,1.84 ± 0.024,-0.0781 ± 0.056
CAAGGU,0.232 ± 0.021,1.883 ± 0.015,1.78 ± 0.029,0.388 ± 0.027
AACCAC,0.0153 ± 0.085,1.91 ± 0.036,1.78 ± 0.037,0.246 ± 0.02
AACCAG,0.356 ± 0.091,1.82 ± 0.027,1.41 ± 0.049,0.678 ± 0.017
AAAUCG,0.0899 ± 0.022,1.86 ± 0.04,1.36 ± 0.014,0.509 ± 0.04
AAAUCA,0.598 ± 0.077,1.927 ± 0.0036,1.8121 ± 0.0018,0.629 ± 0.082
GACCUG,0.408 ± 0.074,1.887 ± 0.0022,1.52 ± 0.018,0.608 ± 0.095
CACGAA,0.226 ± 0.02,1.87 ± 0.02,1.72 ± 0.037,0.363 ± 0.022
AACGAG,0.131 ± 0.0019,1.75 ± 0.031,1.22 ± 0.062,0.553 ± 0.084
AACGAA,-0.1232 ± 0.00029,1.88 ± 0.068,1.67 ± 0.042,-0.425 ± 0.21
AACGAC,0.305 ± 0.007,1.94 ± 0.02,1.79 ± 0.028,0.279 ± 0.064
GACAGG,-0.206 ± 0.16,1.765 ± 0.012,1.27 ± 0.033,-0.557 ± 0.034
GACAGC,0.379 ± 0.028,1.965 ± 0.007,1.74 ± 0.084,0.554 ± 0.047
GACAGA,0.4408 ± 0.00062,1.91 ± 0.038,1.65 ± 0.035,0.594 ± 0.088
GACAGU,-0.268 ± 0.11,1.926 ± 0.0025,1.8 ± 0.045,0.146 ± 0.025
AACGCU,0.624 ± 0.015,1.94 ± 0.032,1.85 ± 0.023,0.548 ± 0.11
AACGCC,0.0156 ± 0.023,1.94 ± 0.048,1.84 ± 0.037,0.1 ± 0.21
AACGCG,-0.0882 ± 0.017,1.812 ± 0.011,1.33 ± 0.08,0.162 ± 0.024
GACCAG,0.136 ± 0.033,1.865 ± 0.0019,1.55 ± 0.073,0.531 ± 0.013

Variant,FACS-Seq fitted mean (log10) [1],normalized RNA/DNA level with ligand (log10) [2],normalized RNA/DNA level without ligand (log10) [3],FACS-Seq fitted mean (log10) [4]
GACCAA,0.126 ± 0.012,1.9242 ± 0.00022,1.81 ± 0.019,0.21 ± 0.049
UACGCA,-0.76 ± 0.081,1.924 ± 0.0096,1.82 ± 0.019,-0.297 ± 0.075
CACCGA,0.374 ± 0.048,1.94 ± 0.0088,1.8 ± 0.038,0.516 ± 0.011
AAAUAU,-0.168 ± 0.02,1.924 ± 0.012,1.763 ± 0.0044,-0.451 ± 0.1
AAAUAA,0.684 ± 0.016,1.89 ± 0.024,1.74 ± 0.025,0.775 ± 0.11
AAAUAG,0.258 ± 0.041,1.842 ± 0.0027,1.44 ± 0.018,0.487 ± 0.016
GAAGGA,0.247 ± 0.034,1.92 ± 0.021,1.64 ± 0.031,0.559 ± 0.021
GAAGGG,-0.0424 ± 0.023,1.806 ± 0.01,1.324 ± 0.0061,0.431 ± 0.059
AACACA,0.00339 ± 0.015,1.9 ± 0.055,1.83 ± 0.023,-0.0536 ± 0.037
AACACC,0.754 ± 0.017,1.9322 ± 0.00016,1.9 ± 0.02,0.806 ± 0.073
AACACG,0.0502 ± 0.00077,1.85 ± 0.046,1.4 ± 0.045,0.412 ± 0.037
CACCAC,0.232 ± 0.012,1.92 ± 0.056,1.81 ± 0.063,0.406 ± 0.036
AACGUA,0.494 ± 0.032,1.86 ± 0.058,1.702 ± 0.0047,0.516 ± 0.1
AACAGG,0.1 ± 0.034,1.76 ± 0.042,1.291 ± 0.0056,0.57 ± 0.031
AACAGU,-0.0447 ± 0.045,1.87 ± 0.047,1.54 ± 0.018,0.4214 ± 0.0042
AACAGA,0.273 ± 0.058,1.907 ± 0.0091,1.642 ± 0.0026,0.322 ± 0.091
CACGGU,0.663 ± 0.025,1.869 ± 0.0027,1.758 ± 0.0045,0.669 ± 0.15
UAAUUA,0.737 ± 0.055,1.92 ± 0.081,1.87 ± 0.032,0.65 ± 0.063
UAAUUU,-0.253 ± 0.046,1.98 ± 0.034,1.892 ± 0.01,-0.129 ± 0.063
UAAUUC,0.569 ± 0.0061,1.96 ± 0.029,1.91 ± 0.0049,0.671 ± 0.032
GACAUG,0.405 ± 0.11,1.81 ± 0.032,1.4 ± 0.0058,0.472 ± 0.081
GACAUA,0.382 ± 0.011,1.91 ± 0.027,1.79 ± 0.027,0.373 ± 0.037
UAAUGG,0.218 ± 0.021,1.87 ± 0.044,1.53 ± 0.052,0.457 ± 0.038
UACAGG,0.231 ± 0.044,1.838 ± 0.014,1.41 ± 0.035,0.661 ± 0.032

Variant,FACS-Seq fitted mean (log10) [1],normalized RNA/DNA level with ligand (log10) [2],normalized RNA/DNA level without ligand (log10) [3],FACS-Seq fitted mean (log10) [4]
UACAGC,0.821 ± 0.21,1.96 ± 0.019,1.898 ± 0.013,0.655 ± 0.12
UACAGA,0.0904 ± 0.019,1.908 ± 0.018,1.54 ± 0.02,0.383 ± 0.04
UACACU,-0.295 ± 0.069,1.911 ± 0.006,1.9 ± 0.0044,-0.34 ± 0.0052
GAAUAA,0.317 ± 0.056,1.91 ± 0.04,1.78 ± 0.0034,0.497 ± 0.03
GAAUAC,0.23 ± 0.012,1.89 ± 0.044,1.713 ± 0.0067,0.499 ± 0.062
GAAUAG,0.0583 ± 0.0095,1.786 ± 0.011,1.35 ± 0.026,0.459 ± 0.05
AAAUGC,-0.0368 ± 0.059,1.92 ± 0.029,1.76 ± 0.026,0.173 ± 0.096
AAAUGA,0.89 ± 0.066,1.924 ± 0.0069,1.688 ± 0.0025,0.709 ± 0.13
AAAUGG,0.175 ± 0.024,1.78 ± 0.025,1.33 ± 0.019,0.502 ± 0.013
GACGCU,0.261 ± 0.12,1.94 ± 0.037,1.893 ± 0.0077,0.508 ± 0.048
GACACC,0.458 ± 0.072,1.92 ± 0.022,1.8641 ± 0.00014,0.365 ± 0.049
GACACG,0.359 ± 0.011,1.9 ± 0.045,1.51 ± 0.018,0.695 ± 0.12
UACGAU,0.105 ± 0.066,1.92 ± 0.041,1.715 ± 0.015,-0.543 ± 0.12
UACGAA,0.0406 ± 0.024,1.9122 ± 0.00026,1.69 ± 0.013,0.191 ± 0.012
UACGAG,0.145 ± 0.0054,1.88 ± 0.069,1.4 ± 0.058,0.382 ± 0.014
AAAGUA,0.554 ± 0.029,1.9 ± 0.023,1.73 ± 0.053,0.61 ± 0.032
AAAGUG,0.148 ± 0.035,1.81 ± 0.034,1.31 ± 0.043,0.47 ± 0.012
AAAGUU,0.306 ± 0.0051,1.91 ± 0.026,1.823 ± 0.0039,0.548 ± 0.017
CACCUU,-0.395 ± 0.03,1.97 ± 0.03,1.87 ± 0.044,-0.0406 ± 0.045
UACCUA,0.48 ± 0.072,1.93 ± 0.0042,1.921 ± 0.019,0.369 ± 0.023
UACCUG,-0.0249 ± 0.053,1.93 ± 0.024,1.635 ± 0.012,0.0984 ± 0.069
GACCGU,0.658 ± 0.04,1.933 ± 0.0015,1.91 ± 0.0056,0.698 ± 0.013
CAAUGU,0.483 ± 0.12,1.91 ± 0.034,1.86 ± 0.062,0.48 ± 0.078
CAAUGG,-0.334 ± 0.031,1.82 ± 0.071,1.42 ± 0.042,0.178 ± 0.12
